From CN117377689A (XENCOR INC, dated 2024)
Where a chain is given by its changes, count along the chain named.

B1: XENP35843 (GPC3-A H1.1_L1.16, 1+1 Fab-scFv-Fc bsAb with CD3 High-Int #1 scFv) (bispecific antibody)
chain 1: QVQLVQSGAEVKKPGASVKVSCKASGYTFTDYEMHWVRQAPGQGLEWMGALEPKTGDTAYSQKFQGRVTMTADKSISTAYMELSRLRSDDTAVYYCTRFYSYTYWGQGTLVTVSSASTKGPSVFPLAPSSKSTSGGTAALGCLVKDYFPEPVTVSWNSGALTSGVHTFPAVLQSSGLYSLSSVVTVPSSSLGTQTYICNVNHKPSDTKVDKKVEPKSCDKTHTCPPCPAPPVAGPSVFLFPPKPKDTLMISRTPEVTCVVVDVKHEDPEVKFNWYVDGVEVHNAKTKPREEEYNSTYRVVSVLTVLHQDWLNGKEYKCKVSNKALPAPIEKTISKAKGQPREPQVYTLPPSREEMTKNQVSLTCDVSGFYPSDIAVEWESDGQPENNYKTTPPVLDSDGSFFLYSKLTVDKSRWEQGDVFSCSVMHEALHNHYTQKSLSLSPGK
chain 2: not shown
chain 3: DVVMTQSPLSLPVTLGQPASISCRSSQSLVHSSGNTYLHWYQQRPGQSPRLLIYKVSNRFSGVPDRFSGSGSGTDFTLKISRVEAEDVGVYFCSQSTHVPPTFGSGTKLEIKRTVAAPSVFIFPPSDEQLKSGTASVVCLLNNFYPREAKVQWKVDNALQSGNSQESVTEQDSKDSTYSLSSTLTLSKADYEKHKVYACEVTHQGLSSPVTKSFNRGEC
B2: XENP36140 (GPC3-A H1.1_L1.31, 1+1 Fab-scFv-Fc bsAb with CD3 High-Int #1 scFv) (bispecific antibody)
chain 1: B1 chain 1
chain 2: not shown
chain 3: B1 chain 3 with S33N, K55Y, S96N
B3: XENP36941 (GPC3-A H1.1_L1.29, 1+1 Fab-scFv-Fc bsAb with CD3 High-Int #1 scFv) (bispecific antibody)
chain 1: B1 chain 1
chain 2: not shown
chain 3: B1 chain 3 with S33N, K55Q, S96N

Molecular target: T1, His-tagged human GPC3 antigen (human, UniProt P51654 25-559, limits assumed)
T1 construct: His-tagged antigen captured on HIS1K Octet sensors; also called 人GPC3; human glypican-3
Test: Octet BLI; His-tagged GPC3 captured on HIS1K sensor, bsAb (1+1 Fab-scFv-Fc) as analyte

T1 sequence (P51654 25-559 limits assumed): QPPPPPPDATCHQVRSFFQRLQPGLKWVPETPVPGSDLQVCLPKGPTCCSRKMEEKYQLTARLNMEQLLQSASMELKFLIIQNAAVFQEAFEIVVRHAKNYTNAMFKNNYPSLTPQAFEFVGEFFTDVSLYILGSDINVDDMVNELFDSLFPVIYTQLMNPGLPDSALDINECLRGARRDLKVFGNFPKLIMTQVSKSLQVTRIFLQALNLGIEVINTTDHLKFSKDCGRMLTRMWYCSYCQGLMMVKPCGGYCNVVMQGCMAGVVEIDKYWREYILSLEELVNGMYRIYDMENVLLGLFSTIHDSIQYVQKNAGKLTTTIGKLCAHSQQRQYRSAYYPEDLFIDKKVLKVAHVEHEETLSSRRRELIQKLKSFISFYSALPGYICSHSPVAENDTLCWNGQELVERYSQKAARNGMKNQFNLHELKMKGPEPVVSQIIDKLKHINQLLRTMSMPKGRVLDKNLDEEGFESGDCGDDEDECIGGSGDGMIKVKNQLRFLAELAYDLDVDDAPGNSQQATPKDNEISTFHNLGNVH

Going from B1 to B2, the Kd rises from 100 nM to 400 nM (4-fold).

With B3 the Kd was 70 nM.
